According to the Immune Epitope Database (IEDB):

Assays:
HLA-B*44:02 = assay: IEDB peptide-MHC binding, purified MHC/competitive/radioactivity; filed as Kd, often an IC50 or EC50 that approximates it; ≥ and ≤ were set here for values at or beyond the usual limits of such assays
HLA-B*40:01 [1] = assay: as above
HLA-A*30:02 = assay: as above
HLA-B*15:01 [2] = assay: as above
HLA-B*51:01 = assay: as above
HLA-A*24:03 = assay: IEDB peptide-MHC binding, purified MHC/direct/fluorescence; filed as Kd, often an IC50 or EC50 that approximates it; ≥ and ≤ were set here for values at or beyond the usual limits of such assays; conditions: source organism: Mycobacterium tuberculosis variant bovis
HLA-B*44:03 = assay: IEDB peptide-MHC binding, purified MHC/competitive/radioactivity; filed as Kd, often an IC50 or EC50 that approximates it; ≥ and ≤ were set here for values at or beyond the usual limits of such assays
HLA-B*53:01 = assay: as above
HLA-A*30:01 = assay: as above
HLA-B*46:01 = assay: IEDB peptide-MHC binding, purified MHC/direct/fluorescence; filed as Kd, often an IC50 or EC50 that approximates it; ≥ and ≤ were set here for values at or beyond the usual limits of such assays; conditions: source organism: Mammarenavirus lassaense
HLA-B*15:01 [3] = assay: as above; conditions: source organism: Mammarenavirus lassaense
HLA-B*07:02 = assay: IEDB peptide-MHC binding, purified MHC/competitive/radioactivity; filed as Kd, often an IC50 or EC50 that approximates it; ≥ and ≤ were set here for values at or beyond the usual limits of such assays
HLA-B*57:01 = assay: IEDB peptide-MHC binding, purified MHC/direct/fluorescence; filed as Kd, often an IC50 or EC50 that approximates it; ≥ and ≤ were set here for values at or beyond the usual limits of such assays; conditions: source organism: Bacillus mycoides
HLA-B*58:01 = assay: as above; conditions: source organism: Bacillus mycoides
HLA-A*29:02 = assay: IEDB peptide-MHC binding, purified MHC/competitive/radioactivity; filed as Kd, often an IC50 or EC50 that approximates it; ≥ and ≤ were set here for values at or beyond the usual limits of such assays
HLA-A*24:02 = assay: as above; conditions: source organism: Mammarenavirus machupoense
HLA-A*26:01 = assay: as above
HLA-A*23:01 = assay: as above; conditions: source organism: Mammarenavirus machupoense
HLA-A*32:01 = assay: as above
HLA-A*01:01 = assay: as above
HLA-B*18:01 = assay: IEDB peptide-MHC binding, purified MHC/direct/fluorescence; filed as Kd, often an IC50 or EC50 that approximates it; ≥ and ≤ were set here for values at or beyond the usual limits of such assays; conditions: source organism: Francisella tularensis subsp. holarctica LVS
HLA-B*40:01 [4] = assay: as above; conditions: source organism: Francisella tularensis subsp. holarctica LVS
[5] = source organism: Dengue virus 2 Jamaica/1409/1983
[6] = source organism: Dengue virus 3 Martinique/1243/1999
[7] = source organism: Dengue virus 1 Brazil/97-11/1997
[8] = source organism: Dengue virus 4 Philippines/H241/1956
[9] = source organism: Vaccinia virus WR
[10] = source organism: Mammarenavirus machupoense
[11] = source organism: Lassa virus Josiah

Sequence: MEKASFIEV
- Kd (HLA-B*44:02; [5]): 320 nM
- Kd (HLA-B*40:01 [1]; [5]): 1210 nM

Sequence: SQHNHRPGY
- Kd (HLA-A*30:02; [6]): 28.7 nM
- Kd (HLA-B*15:01 [2]; [6]): 91.2 nM

Sequence: IPYDPKFEK
- Kd (HLA-B*51:01; [5]): 2200 nM

Sequence: RQRTPQDNQL
- Kd (HLA-B*15:01 [2]; [7]): 112 nM

Sequence: GYAGTLQSL
- Kd (HLA-A*24:03): 0.9 nM

Sequence: EEESEGAIW
- Kd (HLA-B*44:03; [6]): 67.7 nM
- Kd (HLA-B*44:02; [6]): 33.7 nM

Sequence: NEMGLLETT
- Kd (HLA-B*44:03; [7]): 8030 nM

Sequence: ITNELNYVLW
- Kd (HLA-B*53:01; [8]): 483 nM

Sequence: IWGRKSWPLN
- Kd (HLA-A*30:01; [7]): 2050 nM

Sequence: RAKRGTAQI
- Kd (HLA-A*30:01; [7]): 137 nM

Sequence: MATFKMRPMF
- Kd (HLA-A*30:01; [7]): 1790 nM

Sequence: CPLLVNTEPE
- Kd (HLA-B*53:01; [8]): 1650 nM

Sequence: MEIRPVKEK
- Kd (HLA-B*44:03; [7]): 1010 nM
- Kd (HLA-B*44:02; [7]): 640 nM

Sequence: IMGIPYCNY
- Kd (HLA-B*46:01): ≥ 20000 nM
- Kd (HLA-B*15:01 [3]): 43 nM

Sequence: KEGDQYVYM
- Kd (HLA-B*40:01 [1]; [7]): 397 nM

Sequence: GESSPSPTV
- Kd (HLA-B*44:02; [6]): 744 nM
- Kd (HLA-B*40:01 [1]; [6]): 9.6 nM

Sequence: SEIRWEESF
- Kd (HLA-B*15:01 [2]; [9]): 46.9 nM

Sequence: LARWGTFKK
- Kd (HLA-A*30:01; [6]): 316 nM

Sequence: HAIVINPFV
- Kd (HLA-A*30:01; [9]): 221 nM

Sequence: MTRDPLYIY
- Kd (HLA-A*30:01; [9]): 16.9 nM

Sequence: SPGYVLGIFL
- Kd (HLA-B*07:02; [8]): 116 nM

Sequence: ITFQSILGY
- Kd (HLA-B*57:01): 70.7 nM
- Kd (HLA-B*58:01): 57.3 nM

Sequence: YKELCDAVY
- Kd (HLA-A*29:02; [10]): 3200 nM
- Kd (HLA-A*24:02): ≥ 77500 nM
- Kd (HLA-A*30:02; [10]): 1420 nM
- Kd (HLA-A*26:01; [10]): ≥ 77900 nM
- Kd (HLA-A*23:01): ≥ 40500 nM
- Kd (HLA-A*30:01; [10]): ≥ 54300 nM
- Kd (HLA-A*32:01; [10]): ≥ 77800 nM
- Kd (HLA-A*01:01; [10]): 4060 nM

Sequence: IMMLKLLTDF
- Kd (HLA-B*15:01 [2]; source organism: Dengue virus 1 Nauru/West Pac/1974): 18.8 nM

Sequence: KLITQFETY
- Kd (HLA-A*30:02; [6]): 7780 nM
- Kd (HLA-B*15:01 [2]; [6]): 20.2 nM
- Kd (HLA-A*32:01; [6]): 202 nM

Sequence: ASLVMLLVHY
- Kd (HLA-B*44:03; [8]): ≥ 70100 nM
- Kd (HLA-A*30:02; [8]): 1900 nM
- Kd (HLA-A*01:01; [8]): 1830 nM

Sequence: TELKYSWKTW
- Kd (HLA-B*44:03; [5]): 23.9 nM
- Kd (HLA-B*44:02; [5]): 37.9 nM
- Kd (HLA-A*32:01; [5]): 4270 nM

Sequence: RLKGESRKTF
- Kd (HLA-B*15:01 [2]; [6]): 300 nM

Sequence: KEISSMLNI
- Kd (HLA-B*44:03; [7]): 76.6 nM
- Kd (HLA-B*44:02; [7]): 38.9 nM
- Kd (HLA-B*40:01 [1]; [7]): 262 nM

Sequence: YNNFYFYSF
- Kd (HLA-B*15:01 [2]; [9]): 1460 nM

Sequence: CTNFKTQLV
- Kd (HLA-A*29:02; [10]): 4460 nM
- Kd (HLA-A*24:02): ≥ 77500 nM
- Kd (HLA-A*30:02; [10]): 2290 nM
- Kd (HLA-A*26:01; [10]): 13200 nM
- Kd (HLA-A*23:01): ≥ 77700 nM
- Kd (HLA-A*30:01; [10]): 1040 nM
- Kd (HLA-A*32:01; [10]): ≥ 77800 nM
- Kd (HLA-A*01:01; [10]): 1150 nM

Sequence: IPEGRVIDL
- Kd (HLA-B*07:02; [6]): 140 nM

Sequence: SETFSMGLLC
- Kd (HLA-B*44:03; [8]): 82.9 nM

Sequence: GEVGAIALDF
- Kd (HLA-B*44:03; [7]): 23.5 nM
- Kd (HLA-B*44:02; [7]): 21.5 nM

Sequence: RTKDTRIKA
- Kd (HLA-A*30:01; [9]): 0.196 nM

Sequence: LRHPGFTVI
- Kd (HLA-B*51:01; [7]): ≥ 10000 nM

Sequence: SENEVKLTI
- Kd (HLA-B*44:03; [5]): 14.1 nM
- Kd (HLA-B*44:02; [5]): 0.814 nM
- Kd (HLA-B*40:01 [1]; [5]): 373 nM

Sequence: CWLVSNGSY
- Kd (HLA-A*29:02; [11]): 543 nM
- Kd (HLA-A*30:02; [11]): 6.3 nM
- Kd (HLA-A*26:01; [11]): ≥ 34400 nM
- Kd (HLA-A*30:01; [11]): 16900 nM
- Kd (HLA-A*32:01; [11]): 18800 nM
- Kd (HLA-A*01:01; [11]): 13900 nM

Sequence: VEIGLGMPF
- Kd (HLA-B*18:01): ≤ 1 nM
- Kd (HLA-B*40:01 [4]): 16.8 nM

Sequence: SLVMLLVHY
- Kd (HLA-A*30:02; [8]): 1600 nM
- Kd (HLA-B*15:01 [2]; [8]): 419 nM

Sequence: RMAILGDTAW
- Kd (HLA-B*44:02; [5]): 451 nM
- Kd (HLA-B*53:01; [5]): 21.4 nM
- Kd (HLA-B*15:01 [2]; [5]): 233 nM

Sequence: RQEKGKSLLF
- Kd (HLA-B*15:01 [2]; [5]): 42.3 nM

Sequence: WENNIKLTVV
- Kd (HLA-B*40:01 [1]; [6]): 443 nM
